Target: mitochondrial ATP synthase (ETC Complex V) ATPase in rat liver submitochondrial particles (SMP) (rat) (UniProt P15999)
Assay: cell-based or functional assay

rat IF1 (from UniProt Q03344 26-107)
IC50 at pH 6.5, inhibition of oligomycin-sensitive ATPase in rat liver SMP: 190 nM | IC50 at pH 7.25, inhibition of oligomycin-sensitive ATPase in rat liver SMP: 420 nM | IC50 at pH 8, inhibition of oligomycin-sensitive ATPase in rat liver SMP: > 800 nM
